Data set [1] has as its target T1, PARP4 BRCT-WGR-CAT (Homo sapiens, UniProt Q9UKK3 1-573).
T1 sequence: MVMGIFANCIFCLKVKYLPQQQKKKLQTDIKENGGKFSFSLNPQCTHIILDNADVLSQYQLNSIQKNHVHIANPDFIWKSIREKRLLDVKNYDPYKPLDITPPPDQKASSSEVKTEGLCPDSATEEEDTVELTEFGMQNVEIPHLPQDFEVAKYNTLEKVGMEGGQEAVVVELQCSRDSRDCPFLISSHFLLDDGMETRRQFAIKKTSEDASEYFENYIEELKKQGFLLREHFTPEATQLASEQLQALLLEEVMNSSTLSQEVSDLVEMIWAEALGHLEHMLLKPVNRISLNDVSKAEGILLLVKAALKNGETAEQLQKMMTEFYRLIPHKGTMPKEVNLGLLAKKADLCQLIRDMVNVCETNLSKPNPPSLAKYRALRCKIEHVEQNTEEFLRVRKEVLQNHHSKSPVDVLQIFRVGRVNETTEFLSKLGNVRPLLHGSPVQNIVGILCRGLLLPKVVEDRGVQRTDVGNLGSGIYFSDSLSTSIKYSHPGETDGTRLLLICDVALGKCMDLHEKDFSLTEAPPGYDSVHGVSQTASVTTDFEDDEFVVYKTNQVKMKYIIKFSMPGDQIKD
As to the kind of experiment: EMSA; 100 nM RNA; apparent Kd; FP: 50 mM Tris pH 7.5, 50 mM NaCl, 0.05% NP40, 2 mM DTT, 5% glycerol, room temperature 30 min; EMSA: same but 20% glycerol, 100 nM nucleic acid, room temperature 30 min, gel at 4 C in Tris-glycine. Particulars: protein: recombinant, tags: N-terminal His-SUMO tag, cleaved with TEV, Mfold secondary structure, annealed.

Data set [2] has as its target T2, PARP4 WGR-CAT (Homo sapiens, UniProt Q9UKK3 95-573).
T2 sequence: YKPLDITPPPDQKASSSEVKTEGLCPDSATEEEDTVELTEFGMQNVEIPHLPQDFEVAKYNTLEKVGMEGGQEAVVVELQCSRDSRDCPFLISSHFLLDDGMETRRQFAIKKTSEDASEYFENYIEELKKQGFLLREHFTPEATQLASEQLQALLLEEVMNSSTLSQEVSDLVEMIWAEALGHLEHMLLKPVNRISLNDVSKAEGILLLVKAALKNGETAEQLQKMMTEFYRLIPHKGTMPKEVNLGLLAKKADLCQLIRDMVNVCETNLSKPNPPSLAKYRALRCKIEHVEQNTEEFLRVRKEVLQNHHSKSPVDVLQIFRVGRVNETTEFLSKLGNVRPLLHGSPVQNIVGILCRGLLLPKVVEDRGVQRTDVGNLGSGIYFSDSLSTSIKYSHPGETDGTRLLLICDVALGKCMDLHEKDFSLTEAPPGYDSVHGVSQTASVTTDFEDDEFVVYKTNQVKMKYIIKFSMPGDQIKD
As to the kind of experiment: fluorescence polarization; 30 nM RNA; FP: 50 mM Tris pH 7.5, 50 mM NaCl, 0.05% NP40, 2 mM DTT, 5% glycerol, room temperature 30 min; EMSA: same but 20% glycerol, 100 nM nucleic acid, room temperature 30 min, gel at 4 C in Tris-glycine. The conditions noted are these: protein: recombinant; tags: N-terminal His-SUMO tag, cleaved with TEV; label: 5'-6-FAM; Mfold secondary structure, annealed. A general note: In fluorescence polarisation assays a small probe gives low polarisation when free and higher when bound to something large.

For data set [3], the target named is T1, PARP4 BRCT-WGR-CAT. The data set is described as follows: fluorescence polarization; 30 nM RNA; apparent Kd; FP: 50 mM Tris pH 7.5, 50 mM NaCl, 0.05% NP40, 2 mM DTT, 5% glycerol, room temperature 30 min; EMSA: same but 20% glycerol, 100 nM nucleic acid, room temperature 30 min, gel at 4 C in Tris-glycine. The conditions noted are these: protein: recombinant; tags: N-terminal His-SUMO tag, cleaved with TEV; label: 5'-6-FAM; Mfold secondary structure, annealed.

The target in data set [4] is T2, PARP4 WGR-CAT. As to the kind of experiment: EMSA; 100 nM RNA; FP: 50 mM Tris pH 7.5, 50 mM NaCl, 0.05% NP40, 2 mM DTT, 5% glycerol, room temperature 30 min; EMSA: same but 20% glycerol, 100 nM nucleic acid, room temperature 30 min, gel at 4 C in Tris-glycine. The conditions noted are these: protein: recombinant; tags: N-terminal His-SUMO tag, cleaved with TEV; label: none (SYBR Gold stain); Mfold secondary structure, annealed.

Data set [5] concerns the target T2, PARP4 WGR-CAT. The data set is described as follows: EMSA; 100 nM DNA; FP: 50 mM Tris pH 7.5, 50 mM NaCl, 0.05% NP40, 2 mM DTT, 5% glycerol, room temperature 30 min; EMSA: same but 20% glycerol, 100 nM nucleic acid, room temperature 30 min, gel at 4 C in Tris-glycine. Particulars: protein: recombinant; tags: N-terminal His-SUMO tag, cleaved with TEV; label: none stated (SYBR Gold stain); blunt. (Mobility shift assays separate free from complexed probe on a gel.)

B1: vtRNA1-2 (structured_RNA)
RNA: GGCUGGCUUUAGCUCAGCGGUUACUUCGAGUACAUUGUAACCACCUCUCUGGGUGGUUCGAGACCCGCGGGUGCUUUCCAGCUCUUUU
For the molecule B1, the Kd worked out at 1.5 ± 0.4 µM in data set [1] (label: 5'-6-FAM) and 15 ± 9 µM in data set [3]. The binding result in data set [2] was “no binding”.

B2: HDV ribozyme RNA (84 nt) (structured_RNA)
RNA: GCCGGCCAUGGUCCCAGCCUCCUCGCUGGCGGCCGGUGGGCAACAUUCCGAGGGGACCGUCCCUCGGUAAUGGCGAAUGGGACA
As for B2, the binding result in data set [4] is “no binding”. The Kd in data set [1] (label: none (SYBR Gold stain)) is 3.4 ± 0.3 µM.

B3: 47-bp DNA duplex (dsDNA)
DNA 1: CAGATCTACCGAATCAGTCCGACGACGCATCTGCACTACGAGGATAC
DNA 2: GTATCCTCGTAGTGCAGATGCGTCGTCGGACTGATTCGGTAGATCTG
On to B3, for which the binding result in data set [5] is on record as “no binding”.

Values taken from article PMC10711553, “Structural and biochemical analysis of the PARP1-homology region of PARP4/vault PARP”.
